Data published in patent publication US20150297672A1 (TXP PHARMA, published 2015).
Where no end group is shown, it is not given here. [ ]: non-standard residue; d: D form.

B1: α-MSH analogue #1: Ac-(Ac-Lys-Lys-)Lys-Ser-Tyr-Ser-Met-Glu-His-Phe-Arg-Trp-Gly-Lys-Pro-Val-NH2 (Ac-(Ac-Lys-Lys-)Lys-SEQ ID NO:2) (peptide)
peptide: Ac-KSYSMEHFRWGKPV-NH2
chain: Ac-Lys-Lys
modifications: also: bond at chain A 1 to a chain's C-terminus via isopeptide: branch C-terminus to Lys1 ε-amine
notes: Branched peptide
B2: γ-MSH analogue #2: Ac-(Ac-Lys-Lys-)Lys-Tyr-Val-Met-Gly-His-Phe-Arg-(D-Trp)-Asp-Arg-Phe-Gly-NH2 (D-Trp version of SEQ ID NO:8) (peptide)
peptide: Ac-KYVMGHFR[dW]DRFG-NH2
chain: Ac-Lys-Lys
modifications: also: bond at chain A 1 to a chain's C-terminus via isopeptide: branch C-terminus to Lys1 ε-amine
notes: Branched peptide; the second chain is the side branch on Lys1

Assays:
[1] = biological target: T1, human melanocortin receptor type 1 (MC1r) (human, UniProt Q01726 1-317)
T1 construct: whole, on cells; also called MCr1; MCR1

[2] = biological target: T1, human melanocortin receptor type 1 …; assay: cell-based or functional assay

T1 sequence (Q01726 whole entry): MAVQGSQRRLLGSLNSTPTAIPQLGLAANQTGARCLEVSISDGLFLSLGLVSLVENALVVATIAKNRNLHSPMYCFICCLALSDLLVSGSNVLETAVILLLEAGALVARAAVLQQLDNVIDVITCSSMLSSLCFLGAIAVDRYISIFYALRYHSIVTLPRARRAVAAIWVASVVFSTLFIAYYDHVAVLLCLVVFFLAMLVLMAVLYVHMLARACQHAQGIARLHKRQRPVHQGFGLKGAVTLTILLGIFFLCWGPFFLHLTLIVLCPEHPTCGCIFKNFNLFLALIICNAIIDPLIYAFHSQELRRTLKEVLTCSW

Binder	IC50 [1] [nM]	EC50, cAMP production [2] [nM]
B1	0.0645	0.2
B2	0.606	–
